Measured values as given in patent US20100260678A1.

Tests used:
Settings in all cases: remark: other sources report otherwise
[1] = target: T1, biotinylated full-length human IGF-I receptor, captured on streptavidin (human), P08069; assay: similar ELISA binding titration on human IGF-I receptor
[2] = target: human IGF-I receptor on human tumor cells (human), P08069; assay: IGF-I displacement assay on MCF-7 cells at 4° C., 10-100 µg/mL antibody, capture ELISA of the lysate
[3] = target: T1, biotinylated full-length human IGF-I …; assay: ELISA titration on biotinylated human IGF-I receptor captured on streptavidin; non-linear regression for one-site binding
[4] = target: human IGF-I receptor on human tumor cells (human), P08069; assay: IGF-I displacement assay on MCF-7 cells at 37° C., 10-100 µg/mL antibody, capture ELISA of the lysate

Row | Kd [1] | percent displacement of pre-bound biotinylated IGF-I [2] | Kd [3] | percent displacement of pre-bound biotinylated IGF-I [4] | Binder
1 | 0.3 nM | – | – | – | Fab fragment of EM164 antibody (Fab, V domains shown, here or on the partner: biotinylated with PEO-maleimide-biotin reagent (sites not given)) VH: QVQLQQSGAELVKPGASVKLSCKASGYTFTSYWMHWVKQRPGQGLEWIGEINPSNGRTNYNEKFKRKATLTVDKSSSTAYMQLSSLTSEDSAVYYFARGRPDYYGSSKWYFDVWGAGTTVTVS VL: DVLMTQTPLSLPVSLGDQASISCRSSQSIVHSNVNTYLEWYLQKPGQSPKLLIYKVSNRFSGVPDRFSGSGSGTDFTLRISRVEAEDLGIYYCFQGSHVPPTFGGGTKLEIKR
2 | – | 50% | 0.1 nM | 90% | murine anti-IGF-I receptor antibody EM164 (antibody, V domains shown) VH: QVQLQQSGAELVKPGASVKLSCKASGYTFTSYWMHWVKQRPGQGLEWIGEINPSNGRTNYNEKFKRKATLTVDKSSSTAYMQLSSLTSEDSAVYYFARGRPDYYGSSKWYFDVWGAGTTVTVS VL: DVLMTQTPLSLPVSLGDQASISCRSSQSIVHSNVNTYLEWYLQKPGQSPKLLIYKVSNRFSGVPDRFSGSGSGTDFTLRISRVEAEDLGIYYCFQGSHVPPTFGGGTKLEIKR
